T1: 1-15aa
T1 construct: also called alpha-synuclein peptide 1-15
T1 peptide: {Biotin-Ahx}-MDVFMKGLSKAKEGV

T2: 37-51aa
T2 construct: also called alpha-synuclein peptide 37-51
T2 peptide: {Biotin-Ahx}-VLYVGSKTKEGVVHG

T3: 91-105aa
T3 construct: also called alpha-synuclein peptide 91-105
T3 peptide: {Biotin-Ahx}-ATGFVKKDQLGKNEE

T4: 82-96aa
T4 construct: also called alpha-synuclein peptide 82-96
T4 peptide: {Biotin-Ahx}-VEGAGSIAAATGFVK

T5: 109-123aa
T5 peptide: {Biotin-Ahx}-QEGILEDMPVDPDNE

T6: 100-114aa
T6 peptide: {Biotin-Ahx}-LGKNEEGAPQEGILE

B1: ACI-7088-4303H6-Ab1 (antibody, V domains shown)
VH: EVQLQQSGAELVRPGASVKLSCTASGFNIQDDYMHWVKQRPEQGLEWIGWIDPENGDTEYASKFQGKATLTADTSSNTAYLQLSRLTSEDTAVYYCTTAGSGVQLFDYWGQGTTLTVSA
VL: DILMTQSQKFMSTSVGDRVSVTCKASQNVGTNVAWYQQKPGQSPKPLISSASSRYSGVPDRFTGSGSGTDFTLTISNVQSEDLADYFCQQYNRYPLTFGAGTKLELK
notes: mouse hybridoma mAb; tied by the hybridoma code 4303H6D7; also called 4303H6D7
B2: ACI-7089-4418F6-Ab1 (antibody, V domains shown)
VH: QVQLQQSGAELARPGASVKVSCKASGYTFTSSGISWLKHRTGQGLEWIGDIYPRSGNTYYNEKFKDKATLTADKSSSTAYMELRSLTSEDSAVYFCSSGNYWGQGTTLTVSS
VL: DIVITQDDLSNPVTSGESVSISCRSSKSLLYKDGKTYLNWFLQRPGQSPQLLIYLMSTRASGVSDRFSGSGSGTDFTLEISRVKAEDVGVYYCQQLLEYPLTFGAGTKLELK
notes: mouse hybridoma mAb; also called 4418F6G7
B3: ACI-7088-4301H3-Ab2 (antibody, V domains shown)
VH: EVQLQQSGPELVKPGASVKISCKASGYTFADYFMNWVKQSHGKSLEWIGDINPNNGGTTYNQKFKGKATLTVDKSSNTAYMELRSLTSEDSAVYYCARGRNYAMDYWGQGTSVTVSS
VL: DIVMSQSPSSLAVSAGEKVTMSCKSSQSLLNSRTRKNYLAWYQQKPGQSPKLLIYSASTRESGVPDRFTGSGFGTDFTLTISSVQAEDLAVYYCKQSYDLWTFGGGTKLEIK
notes: mouse hybridoma mAb; also called 4301H3A5
B4: ACI-7089-4409F1-Ab1 (antibody, V domains shown)
VH: DVQLQESGPGLVKPSQSLSLTCSVTGYSITRGYYWNWIRQFPGNKLEWMGYISYDGSNNYNPSLRNRISITRDTSKNQFFLKLKSVTTEDTATYFCARGDSNWGQGTTLTVSA
VL: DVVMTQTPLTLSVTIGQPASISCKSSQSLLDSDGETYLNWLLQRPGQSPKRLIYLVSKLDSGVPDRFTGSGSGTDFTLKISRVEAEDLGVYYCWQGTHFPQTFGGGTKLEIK
notes: mouse hybridoma mAb; also called 4409F1A8
B5: ACI-7088-4303A3-Ab1 (antibody, V domains shown)
VH: QVQLQQSGAELVRPGASVTLSCKASGYTFTDYEMHWVKQTPVHGLEWIGVIDPETGGAVQNQKFKGKAILTADNSSSTAYMDLRSLTSEDSAVYNCAMGAALRLAYWGQGTLVTVSS
VL: DVLMTQTPLSLPVSLGDQASISCRSSQSIVHSNGNSYLEWYLQKPGQSPKLLIYKVSNRFSGVPDRFSGSGSGTDFTLKINRVEAEDLGVYYCFQGSHVPFTFGSGTKLEIK
notes: mouse hybridoma mAb; also called 4303A3E4
B6: ACI-7088-4305H7-Ab1 (antibody, V domains shown)
VH: EVQLQQSGAELVRPGASVKLSCTASGFNIKDDYMHWVKQRPEQGLEWIGWIDPENGDTEYASKFQGKATMIADTSSNTAYLQLSSLTSEDTAVYYCKTWGTTQALFPYWGQGTLVTVSS
VL: DIVMTQSQKFMSTSVGDRVSITCKASQNVGTAVGWYQQKAGQSPKLLIHSASNRYTGVPDRFTGSGSGTDFTLTINNMQSEDLADYFCQQYRSYPLTFGAGTKLELK
notes: mouse hybridoma mAb; also called 4305H7A4
B7: ACI-7088-4303A1-Ab1 (antibody, V domains shown)
VH: B6 VH with T58S, I71T, T102A, S119A
VL: B6 VL with A32S
notes: mouse hybridoma mAb; also called 4303A1E7
B8: ACI-7088-4317A4-Ab1 (antibody, V domains shown)
VH: B6 VH with I71T, S119A
VL: B6 VL with S12Y, T31N, S65T
notes: mouse hybridoma mAb; also called 4317A4D2
B9: ACI-8033-5A12-Ab1 (antibody, V domains shown)
VH: QVHLKQSGADLVRPGASVKLSCKASGYTFTDYYINWVKQRPGQGLEWIARIYPGSGNTYYNEKFKGRATLSAEKSSTTAYMQLSSLTSEDSAVYFCVVGYYGAWGQGTTLTVSS
VL: DVVMTQTPLSLPVSLGDQASISCRSSQSLVHSNGKTHLHWYLQKPGQSPKLLIYKVSNRFSGVPDRFSGSGSGTDFTLKISRVEAEDLGVYFCSQSTHVPWTFGGGTKLEIK
notes: mouse hybridoma mAb; also called 917.5A12A11C9
B10: ACI-8033-18C11-Ab1 (antibody, V domains shown)
VH: QVQLQQPGAELVKPGASVKMSCKAAGYTFSSYWITWVRQRPGQGLDWIGDIYPGGGVTNYNEKFKTKATLTVDTSSSTAYMQLSSLTSEDSAVYYCATAQTTFAYWGQGTLVTVSA
VL: B5 VL with S28N, S32N, S36T, N81S, F101R, S105G
notes: mouse hybridoma mAb; also called 917.18C11A11F10
B11: ACI-8033-18D12-Ab1 (antibody, V domains shown)
VH: B10 VH with A25S, S30T, Q82H, Y95F, Y105H
VL: B5 VL with S28N, V30A, S32N, S36T, N81S, F101R, S105G
notes: mouse hybridoma mAb; also called 917.18D12F10D6
B12: ACI-7089-4418C5-Ab1 (antibody, V domains shown)
VH: DGQLQESGPGLVKPSQSLSLTCSVTGYSITSGYYWNWIRQFPGNKLEWMGYINYDGSNNYNPSLKNRISITRDTSKNQFFLKFNFVTTEDTATYYCVRGDVYWGQGTTLTVSS
VL: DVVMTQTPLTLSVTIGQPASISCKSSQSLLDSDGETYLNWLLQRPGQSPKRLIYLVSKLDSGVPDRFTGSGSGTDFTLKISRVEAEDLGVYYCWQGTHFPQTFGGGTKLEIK
notes: mouse hybridoma mAb; also called 4418C5G1

Residue numbers refer to the chain shown, from its start. Where no end group is shown, it is not given here. The star is where a group is joined. Biotin = O=C1N[C@H]2[C@H](CS[C@H]2CCCCC(=O)*)N1; Ahx = NCCCCCC(=O)O

The first experiment has as its target T1, 1-15aa. Kind of experiment: 15-mer peptide ELISA. For orientation: In an ELISA, binding on a coated surface is turned into a signal by an enzyme label.
Description: (§1) Epitope mapping for the antibodies derived from stable hybridoma clones was determined using an indirect ELISA on a library of 15-mer peptides covering the entire sequence of human alpha-synuclein from 1 to 140aa. […] Results are expressed as optical density (O.D.). Each bar represents data for an individual antibody.
(§2) Serum-free supernatants were harvested from stable hybridomas. The supernatants containing antibodies of interest were then screened by an indirect ELISA assay to determine epitopes. Epitopes were first determined using a library of 15-mer peptides covering the entire sequence of human alpha-synuclein protein, spanning amino acids (aa) 1-140 with 9aa offset and 6aa overlap. […] Briefly, streptavidin-coated ELISA plates were blocked overnight at 4° C. […] Plates were washed with PBS/0.05% Tween® 20 and then incubated with the hybridoma supernatants at 1/100 dilution for 1 hour at 25° C. […] After final wash, plates were incubated 2 hours at 25° C. with alkaline phosphatase substrate (p-nitrophenyl phosphate disodium hexahydrate; pNPP, S0942, Sigma) and read the absorbance optical density (O.D.) signal at 405 nm using an ELISA plate reader (Tecan, Switzerland).
Turning to B1, the binding result is listed as “no binding (tested: supernatant 1/100)”.
For the molecule B2, the binding result is “no binding (tested: supernatant 1/100)”.
Same read-out and setting: next, B3: “no binding (tested: supernatant 1/100)”; B4: “no binding (tested: supernatant 1/100)”; B5: “no binding (tested: supernatant 1/100)”.

Another experiment deals with T2, 37-51aa. Kind of experiment: 15-mer peptide ELISA.
Description: as §1, §2
Consider B1, for which the binding result is “no binding (tested: supernatant 1/100)”.
On the same count and under the same terms, next, B2: “no binding (tested: supernatant 1/100)”.
For B3, the binding result was “no binding (tested: supernatant 1/100)”.
Consider B6, for which the binding result is “no binding (tested: supernatant 1/100)”.
On the same count and under the same terms, under B7 stands “no binding (tested: supernatant 1/100)”; under B8, “no binding (tested: supernatant 1/100)”; under B4, “no binding (tested: supernatant 1/100)”.

The next experiment concerns the target T3, 91-105aa. The experiment in a line: 15-mer peptide ELISA.
Description: as §1, §2
In the case of B2, the binding result is “no binding (tested: supernatant 1/100)”.
Consider B8, for which the binding result is “no binding (tested: supernatant 1/100)”.
For the molecule B5, the binding result is listed as “no binding (tested: supernatant 1/100)”.

Another experiment deals with T4, 82-96aa. The experiment in a line: 15-mer peptide ELISA.
Description: as §1, §2
Take B1: the binding result is reported as “no binding (tested: supernatant 1/100)”.
The same measure, in the same setting: under B3 stands “no binding (tested: supernatant 1/100)”.
The same measure, in the same setting: next, B6: “no binding (tested: supernatant 1/100)”; B7: “no binding (tested: supernatant 1/100)”.
In the case of B8, the binding result is recorded as “no binding (tested: supernatant 1/100)”.
On the same count and under the same terms, next, B5: “no binding (tested: supernatant 1/100)”.

Another experiment concerns the target T5, 109-123aa. Kind of experiment: indirect ELISA on biotinylated 15-mer peptide (streptavidin plate), supernatant 1/100.
Description: as §1, §2
For B9, the binding result is “binds”.

For the next experiment, the target named is T6, 100-114aa. The description is as above.
Description: as §1, §2
Take B9: the binding result is “binds”.
Same read-out and setting: next, B10: “binds”.
On the same count and under the same terms, next, B11: “binds”.

The target of the next experiment is T3, 91-105aa. The experiment in a line: 15-mer peptide ELISA. This is another data set of the same source.
Description: as §1, §2
Regarding B9, the binding result is “no binding (tested: supernatant 1/100)”.
Still for that read-out and setting: under B10 stands “no binding (tested: supernatant 1/100)”; under B11, “no binding (tested: supernatant 1/100)”.

For the next experiment, the target named is T5, 109-123aa. Kind of experiment: 15-mer peptide ELISA.
Description: as §1, §2
Regarding B10, the binding result was “no binding (tested: supernatant 1/100)”.
As for B11, the binding result is given as “no binding (tested: supernatant 1/100)”.

Another experiment addresses T4, 82-96aa. The experiment in a line: 15-mer peptide ELISA. This is another data set of the same source.
Description: as §1, §2
Take B9: the binding result is reported as “no binding (tested: supernatant 1/100)”.
The same measure, in the same setting: under B10 stands “no binding (tested: supernatant 1/100)”; under B11, “no binding (tested: supernatant 1/100)”.

Another experiment concerns the target T3, 91-105aa. Kind of experiment: indirect ELISA on biotinylated 15-mer peptide (streptavidin plate), supernatant 1/100.
Description: as §1, §2
B1: the binding result is given as “binds”.
Same read-out and setting: next, B3: “binds”; B6: “binds”.

For another experiment, the target named is T4, 82-96aa. Described as above.
Description: as §1, §2
With B2, the binding result was “binds”.
The same measure, in the same setting: under B12 stands “binds”.
With B4, the binding result is “binds”.

A further experiment deals with T1, 1-15aa. Described as above.
Description: as §1, §2
Take B6: the binding result is listed as “binds”.
In the case of B7, the binding result is “binds”.
Still for that read-out and setting: under B8 stands “binds”.

In the next experiment the target is T2, 37-51aa. The description is as above.
Description: as §1, §2
Turning to B5, the binding result is given as “binds”.

For the origin of these results see patent publication US20220298231A1 (AC IMMUNE, published 2022).
